Numbering of substitutions follows the chain as printed. “And” between values parts separate entries of the source, which are not always exact repeats. Equal values may be shown once.
B1: G14 (antibody, V domains shown)
VH: EVKLEESGGGLVQPGGSMKLSCVASGLTFSNYWMNWVRQSPEKGLEWVALIRLYSDNYAIHYAESVKGRFTISRDDSKSSVYLQMNNLRAEDTGIYYCTTGTDYWGQGTTLTVSS
VL: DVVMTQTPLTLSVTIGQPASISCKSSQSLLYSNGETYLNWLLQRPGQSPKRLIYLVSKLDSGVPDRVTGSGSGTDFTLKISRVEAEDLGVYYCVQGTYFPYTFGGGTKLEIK
B2: huG14-235 (antibody, V domains shown)
VH: EVQLVESGGGLVKPGGSLRLSCAASGLTFSNYWGNWVRQAPGKGLEWVALIRLYSDNYAIHYAESVKGRFTISRDDSKSTVYLQMNSLKTEDTAVYYCTTGTDNWGQGTTVTVSS
VL: DVVMTQSPLSLYVTPGRPASISCKSSHSLLYSNKRTYLNWLLQKPGQSPQRLIYLVSKLDSGVPDRFSGSGSGTDFTLKISRVEAEDLGVYYCIQGTYFPYTFGQGTKLEIK
B3: huG14-234 (antibody, V domains shown)
VH: B2 VH with N104Y
VL: B2 VL with Y12P, R35K
B4: huG14-301 (antibody, V domains shown)
VH: B2 VH
VL: B2 VL with Y12P, P15L, R17Q, L42Q, K44R, Q50R
B5: huG14-124-3 (antibody, V domains shown)
VH: B2 VH with N104Y
VL: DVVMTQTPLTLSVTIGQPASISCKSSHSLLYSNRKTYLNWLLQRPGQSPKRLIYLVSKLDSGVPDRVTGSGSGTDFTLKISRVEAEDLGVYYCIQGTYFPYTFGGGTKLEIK
B6: huG14-124-8 (antibody, V domains shown)
VH: B2 VH with N104Y
VL: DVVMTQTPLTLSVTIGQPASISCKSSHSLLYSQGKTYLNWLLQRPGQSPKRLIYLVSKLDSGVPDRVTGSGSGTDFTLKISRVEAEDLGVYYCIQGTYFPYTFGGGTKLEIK
B7: huG14-124-7 (antibody, V domains shown)
VH: B2 VH with N104Y
VL: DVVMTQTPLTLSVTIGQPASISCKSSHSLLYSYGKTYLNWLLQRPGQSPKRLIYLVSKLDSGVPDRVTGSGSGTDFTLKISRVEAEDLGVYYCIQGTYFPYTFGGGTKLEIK
B8: huG14-124-5 (antibody, V domains shown)
VH: B2 VH with N104Y
VL: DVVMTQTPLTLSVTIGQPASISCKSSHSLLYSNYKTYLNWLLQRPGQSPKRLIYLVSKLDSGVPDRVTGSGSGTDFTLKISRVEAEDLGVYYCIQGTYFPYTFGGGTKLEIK
B9: huG14-124 (antibody, V domains shown)
VH: B2 VH with N104Y
VL: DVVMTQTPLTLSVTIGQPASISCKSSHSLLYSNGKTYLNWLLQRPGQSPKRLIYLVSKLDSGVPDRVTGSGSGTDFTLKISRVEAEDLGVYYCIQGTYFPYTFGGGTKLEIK
B10: huG14-124-1 (antibody, V domains shown)
VH: B2 VH with N104Y
VL: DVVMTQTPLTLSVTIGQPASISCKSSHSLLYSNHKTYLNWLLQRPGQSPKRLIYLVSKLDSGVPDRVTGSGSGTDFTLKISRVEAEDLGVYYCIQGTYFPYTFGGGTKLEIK
B11: huG14-124-6 (antibody, V domains shown)
VH: B2 VH with N104Y
VL: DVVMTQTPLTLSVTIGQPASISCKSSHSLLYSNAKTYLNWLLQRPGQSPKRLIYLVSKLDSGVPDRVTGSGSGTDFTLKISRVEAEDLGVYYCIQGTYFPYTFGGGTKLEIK
B12: huG14-124-2 (antibody, V domains shown)
VH: B2 VH with N104Y
VL: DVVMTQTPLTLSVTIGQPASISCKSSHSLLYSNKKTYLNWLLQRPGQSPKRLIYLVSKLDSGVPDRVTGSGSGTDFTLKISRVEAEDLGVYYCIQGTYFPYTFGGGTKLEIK
B13: huG14-124-9 (antibody, V domains shown)
VH: B2 VH with N104Y
VL: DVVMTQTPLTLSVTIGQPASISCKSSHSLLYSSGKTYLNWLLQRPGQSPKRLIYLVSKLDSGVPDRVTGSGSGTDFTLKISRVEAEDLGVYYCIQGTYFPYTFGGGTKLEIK
B14: huG14-1 (antibody, V domains shown)
VH: B2 VH with G34M, N104Y
VL: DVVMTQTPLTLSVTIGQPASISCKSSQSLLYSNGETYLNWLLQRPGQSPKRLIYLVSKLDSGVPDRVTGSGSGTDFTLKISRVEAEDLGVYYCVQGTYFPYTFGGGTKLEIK
B15: huG14-103 (antibody, V domains shown)
VH: B2 VH with G34M, N104Y
VL: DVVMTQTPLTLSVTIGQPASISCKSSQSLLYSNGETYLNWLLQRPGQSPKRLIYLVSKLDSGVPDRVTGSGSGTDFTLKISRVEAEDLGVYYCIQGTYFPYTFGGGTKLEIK
B16: huG14-102 (antibody, V domains shown)
VH: B2 VH with G34M, N104Y
VL: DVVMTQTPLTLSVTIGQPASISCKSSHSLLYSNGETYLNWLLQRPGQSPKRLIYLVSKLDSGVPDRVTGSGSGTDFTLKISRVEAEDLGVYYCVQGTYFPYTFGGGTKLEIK
B17: huG14-111 (antibody, V domains shown)
VH: B2 VH with G34M, N104F
VL: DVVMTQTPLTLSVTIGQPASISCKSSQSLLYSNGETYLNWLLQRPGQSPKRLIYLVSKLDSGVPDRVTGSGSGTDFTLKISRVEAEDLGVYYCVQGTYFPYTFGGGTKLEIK
B18: huG14-108 (antibody, V domains shown)
VH: B2 VH with G34M, N104Y
VL: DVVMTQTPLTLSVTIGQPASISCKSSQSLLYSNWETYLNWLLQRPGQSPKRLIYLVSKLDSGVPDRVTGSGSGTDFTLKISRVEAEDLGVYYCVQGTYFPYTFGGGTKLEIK
B19: huG14-110 (antibody, V domains shown)
VH: B2 VH with G34M
VL: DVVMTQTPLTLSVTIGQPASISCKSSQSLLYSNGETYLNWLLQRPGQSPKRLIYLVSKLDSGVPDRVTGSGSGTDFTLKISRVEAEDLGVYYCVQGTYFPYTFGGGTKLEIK
B20: huG14-104 (antibody, V domains shown)
VH: B2 VH with G34M, N104Y
VL: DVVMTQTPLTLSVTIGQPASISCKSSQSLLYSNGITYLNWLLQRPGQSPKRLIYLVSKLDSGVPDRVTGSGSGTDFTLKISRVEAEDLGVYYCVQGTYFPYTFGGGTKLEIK
B21: huG14-106 (antibody, V domains shown)
VH: B2 VH with G34M, N104Y
VL: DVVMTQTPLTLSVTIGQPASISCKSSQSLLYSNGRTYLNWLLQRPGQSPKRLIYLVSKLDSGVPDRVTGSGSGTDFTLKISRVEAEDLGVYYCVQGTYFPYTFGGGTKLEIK
B22: huG14-107 (antibody, V domains shown)
VH: B2 VH with G34M, N104Y
VL: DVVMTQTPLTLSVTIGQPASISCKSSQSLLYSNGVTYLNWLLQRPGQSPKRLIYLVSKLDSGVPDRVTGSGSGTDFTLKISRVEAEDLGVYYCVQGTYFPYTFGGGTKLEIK
B23: huG14-217 (antibody, V domains shown)
VH: B2 VH with N104Y
VL: B2 VL with Y12P, K34G
B24: huG14-232 (antibody, V domains shown)
VH: B2 VH
VL: B2 VL with K34G
B25: huG14-216 (antibody, V domains shown)
VH: B2 VH with N104Y
VL: B2 VL with Y12P, K34G, R35K
B26: huG14-230 (antibody, V domains shown)
VH: B2 VH
VL: B2 VL with Y12P, K34G, R35K
B27: huG14-125 (antibody, V domains shown)
VH: B2 VH with N104Y
VL: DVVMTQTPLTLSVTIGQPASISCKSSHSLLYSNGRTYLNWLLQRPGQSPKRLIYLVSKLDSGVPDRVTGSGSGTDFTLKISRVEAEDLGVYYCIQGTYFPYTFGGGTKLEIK
B28: P6373 (antibody, V domains shown)
VH: EVKFEESGGGLVQPGGSIKLSCAASGVTFSEAWMDWVRQSPEKGLEWVAEIRDKPNSYVTYYAESVKGRFTISRDDSKSRVYLQMNNLRTEDTGIYYCTGAMDYWGQGTSVTVSS
VL: DIVMTQTPLSLSVTIGQPASISCKSSQSLLYSNGKTYLNWLQQRPGQSPKRLIYQVSKLDPGIPDRFSGSGSETDFTLKISRVEAEDLGIYYCMQGSSLPWTFGGGTKLEIKR
B29: huG14-131 (antibody, V domains shown)
VH: B2 VH with G34M
VL: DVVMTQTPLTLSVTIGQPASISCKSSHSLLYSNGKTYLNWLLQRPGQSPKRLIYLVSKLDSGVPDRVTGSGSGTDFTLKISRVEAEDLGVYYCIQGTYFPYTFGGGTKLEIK

Molecular target: T1, CD24 biotinylated (ACRO CD4-H82E9) (human, UniProt P25063)
T1 chain: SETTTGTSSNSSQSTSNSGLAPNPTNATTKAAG
Experiment: SPR

First: B1
Second: B2
The Kd of the first is 4.5-fold higher: 12.1 nM for the first, 2.69 nM for the second.

First: B3
Second: B4
The Kd of the first is 2.1-fold lower: 3.62 nM for the first, 7.58 nM for the second.

Molecular target: T1, CD24 biotinylated (ACRO CD4-H82E9)
Experiment: SPR
Remark: another data set of the same source

Going from B5 to B6, the Kd rises from 1.52 nM to 10.6 nM (7-fold).

Going from B7 to B8, the Kd rises from 1.07 nM to 2.13 nM (2-fold). The first binds more tightly here.

Going from B9 to B10, the Kd falls from 19 nM to 2.08 nM (9.1-fold).

First: B11
Second: B12
The Kd of the first is 1.6-fold higher: 2.54 nM for the first, 1.58 nM for the second. The second binds more tightly here.

B13 showed a Kd of 9.77 nM.

Molecular target: CD24(27-56aa)-GST NEOX-4 (human)
Experiment: ELISA

CD24(27-56aa)-GST NEOX-4 (human), sequence (chain, as listed by the source): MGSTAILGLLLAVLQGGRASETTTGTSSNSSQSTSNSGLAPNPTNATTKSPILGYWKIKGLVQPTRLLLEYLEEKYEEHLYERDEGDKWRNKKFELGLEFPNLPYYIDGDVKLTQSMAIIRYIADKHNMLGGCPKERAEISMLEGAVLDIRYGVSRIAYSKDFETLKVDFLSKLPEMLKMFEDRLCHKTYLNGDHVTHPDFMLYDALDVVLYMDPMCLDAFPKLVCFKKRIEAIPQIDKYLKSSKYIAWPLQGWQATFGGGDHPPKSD

B1 was tested, and the EC50 was 0.0248 µg/mL and 0.00988 µg/mL.
B14 was tested, and the EC50 was 0.136 µg/mL and 0.128 µg/mL.

B15 and B16 are within 1.5-fold of each other in EC50: 0.00813 µg/mL for the first, 0.00961 µg/mL for the second.

First: B17
Second: B18
The EC50 of the first is 2.7-fold lower: 0.0293 µg/mL for the first, 0.0784 µg/mL for the second.

B19 and B20 are within 1.5-fold of each other in EC50: 0.0153 µg/mL for the first, 0.0183 µg/mL for the second.

First: B21
Second: B22
The EC50 of the first is 3.1-fold lower: 0.0157 µg/mL for the first, 0.0494 µg/mL for the second.

Molecular target: CD24(27-56aa)-GST NEOX-4 (human)
Experiment: ELISA
Remark: another data set of the same source

Going from B1 to B23, the EC50 falls from 0.0366 µg/mL to 0.00443 µg/mL (8.3-fold).

Going from B14 to B24, the EC50 falls from 0.177 µg/mL to 0.00621 µg/mL (29-fold).

Going from B25 to B26, the EC50 rises from 0.0044 µg/mL to 0.00889 µg/mL (2-fold).

Molecular target: CD24(27-56aa)-GST NEOX-4 (human)
Experiment: ELISA
Remark: another data set of the same source

Compared with B1, B14 is 5-fold higher in EC50: 0.031 µg/mL for the first, 0.154 µg/mL for the second.

First: B9
Second: B27
The EC50 of the first is 1.5-fold lower: 0.00406 µg/mL for the first, 0.00619 µg/mL for the second.

Molecular target: T2, CD24 (cell surface) (human)
T2 chain: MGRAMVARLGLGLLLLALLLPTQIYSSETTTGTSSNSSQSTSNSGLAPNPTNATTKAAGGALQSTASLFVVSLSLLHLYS
Experiment: FACS, NALM6

For B28, the EC50 was 0.469 µg/mL and 0.217 µg/mL.
B1 was tested, and the EC50 was 7.3 µg/mL and 18.5 µg/mL.

Going from B23 to B2, the EC50 falls from 0.348 µg/mL to 0.184 µg/mL (1.9-fold).

B24 and B3 are within 1.5-fold of each other in EC50: 0.235 µg/mL for the first, 0.305 µg/mL for the second.

First: B9
Second: B4
The EC50 of the first is 2.4-fold higher: 0.609 µg/mL for the first, 0.256 µg/mL for the second.

B25 and B29 are within 1.5-fold of each other in EC50: 0.431 µg/mL for the first, 0.391 µg/mL for the second.

B27 and B26 are within 1.5-fold of each other in EC50: 0.443 µg/mL for the first, 0.35 µg/mL for the second.

Molecular target: T2, CD24 (cell surface)
Experiment: FACS, MDA-MB-468

Going from B23 to B2, the EC50 falls from 1.21 µg/mL to 0.184 µg/mL (6.6-fold).

Compared with B24, B3 is 1.6-fold lower in EC50: 0.484 µg/mL for the first, 0.305 µg/mL for the second.

Compared with B9, B4 is 3.2-fold lower in EC50: 0.827 µg/mL for the first, 0.256 µg/mL for the second.

B25 and B29 are within 1.5-fold of each other in EC50: 0.676 µg/mL for the first, 0.57 µg/mL for the second.

B27 and B26 are within 1.5-fold of each other in EC50: 0.684 µg/mL for the first, 0.63 µg/mL for the second.

— US20260347496 (published 2026)
